The target in test [1] is sea urchin sperm flagellar axonemes (sea urchin). The test can be described thus: single-molecule fluorescence motility assay.
Test [2] has the same target. The test is described as follows: optical trapping bead assay.
The target is the same in test [3]. The test is described as follows: single-molecule fluorescence motility assay. This is another data set of the same source.
For test [4] the target is unchanged. The test is described as follows: single-molecule fluorescence motility assay. The source holds these as a separate data set.
The target of test [5] is microtubules (taxol-stabilized; polymer of alpha- and beta-tubulin).

Read-outs that look alike come from different tables or passages of the source.

The text below walks through data of paper PMC2174365.

Turning to “Cys344 Cys-light K560-GFP (neck coiled-coil mutant Tyr344Cys) (from UniProt P33176 1-560) (domain or fragment)”, the frequency of movement/binding in test [1] and in test [3] was 2 /min/μm/nM throughout. Further, the fold change of the dissociation rate under load (with DTNB against without DTNB) in test [2] was 1.2 fold.
Consider “Cys337/Cys344 Cys-light K560-GFP (neck coiled-coil double mutant Ala337Cys/Tyr344Cys) (from UniProt P33176 1-560) (domain or fragment)”, for which the values for the association time in test [1] and in test [4] were 3.8 s and 2.5 s, respectively.
“Cys330/Cys4 Cys-light K560-GFP (neck linker mutant Ser330Cys/Leu4Cys) (from UniProt P33176 1-560) (domain or fragment)”: in test [5], the Km(MT) of the microtubule-stimulated ATPase, NEM-modified control was found to be 0.45 μM tubulin; the Km(MT) of the microtubule-stimulated ATPase, with 200 μM DTNB is 2.35 μM tubulin; the Km(MT) of the microtubule-stimulated ATPase, without DTNB is 0.57 μM tubulin.
Substance “Cys337 Cys-light K560-GFP (neck coiled-coil mutant Ala337Cys) (from UniProt P33176 1-560) (domain or fragment)” displayed an association time in test [3] of 3.7 s.
As to “Cys334/Cys222 Cys-light K560-GFP (neck linker mutant Glu334Cys/Lys222Cys) (from UniProt P33176 1-560) (domain or fragment)”, in test [5], the Km(MT) of the microtubule-stimulated ATPase, NEM-modified control came to 1.51 μM tubulin; the Km(MT) of the microtubule-stimulated ATPase, with 200 μM DTNB is 2.36 μM tubulin; the Km(MT) of the microtubule-stimulated ATPase, without DTNB was 0.62 μM tubulin.
